Drawing on the RNAGym collection of RNA variant scans (doi:10.7554/elife.80360), this text covers self-cleavage for 38 variants.

B1: Hairpin Ribozyme (parent)
chain: GUCCUCUUUCACGUGCGCGUGAAAGAGAGAAGUGAACCAGAGAAACACACGUUGUGGUAUAUUACCUGGUA

In the series the parent is B1. As to the kind of experiment: self-cleavage, relative activity (ratio to wild type); higher = more cleavage; co-transcriptional.
As for GUCCUCUUUCACGUGCGCGUGAAAGAGAGAAGUGAACCAGAGAAACACACGUUGUGCUAUUUUACCUGGUA [G57C A61U], the self-cleavage came out at 0.161.
On to GUCCUCUUUCACGUGCGCGUGAAAGAGAGAAGUGAACCAGAGAAUCACACGUUGUGCUAUAUUACCUGGUA [A45U G57C], for which the self-cleavage worked out at 0.15.
Turning to GUCUUCCUUCACGUGCGCGUGAAAGAGAGAAGUGAACCAGAGAAACACACGUUGUGGUAUAUUACCUGGUA [C4U U7C], the self-cleavage is 0.193.
With GUCCUCUUUCACGUGCGCGUGAAAGAGAGAAGUGAACCAGAGAAACACUCGUUGUGGUAUAUUACCCGGUA [A49U U67C], the self-cleavage came to 0.11.
In the case of GUCCUCUUUCACGUGCGCGUGAAAGAGAGAUGUGAACCAGAGAAACACACGUUGUUGUAUAUUACCUGGUA [A31U G56U], the self-cleavage is 0.187.
Under GUCCUCUCUCACGUGCGCGUGAAAGAGAGAAGUGAACCAGAGAAACACAAGUUGUGGUAUAUUACCUGGUA [U8C C50A] stands 0.144.
Take GUCCUCUUUCACGUGCGCGUGAAAGAGAGAAGUAAACCAGAGAAGCACACGUUGUGGUAUAUUACCUGGUA [G34A A45G]: the self-cleavage amounted to 0.435.
GUCCUCUUUCACGUGCGCGUGAAAGAGAGAAGUGAACCAGAGAAACAAACGUAGUGGUAUAUUACCUGGUA [C48A U53A]: the self-cleavage is 0.228.
As for GUCCUCUUUUACGUGCGCGUGAAAGAGAGAAGUGAACCAGAGAAACACACGUUGUGGUAUAUUGCCUGGUA [C10U A64G], the self-cleavage was 0.606.
As for GUCCUCUUUCACGUGCGCGUGAAAGAGAGAAGUGAACCAGAGAAACACACGUUGUGGAAUAUUACCUUGUA [U58A G68U], the self-cleavage amounted to 0.134.
In the case of GACCUCUUUCACGUGCGCGUGAAAGAGAGAAGUGAACCAGAGAAACACACGUUGUGGUAUAUUGCCUGGUA [U2A A64G] it was 0.0976; in that of GUCCUCUUUCACGGGCGCGUGAAAGAGAGAAGUGAACCAGAGAAACACACGUUGUGGUAUAUUACCUUGUA [U14G G68U], 0.333; in that of GUCCACUUUCACGUGCGCGUGAAAGAGAGAAGUGAACCAGAGAAACACACGUUUUGGUAUAUUACCUGGUA [U5A G54U], 0.327.
Turning to GUCCUCUUUCAAGUGCGCGUGAAAGAGAGAAGUGAACCAGAGAAACACACGUUGUGGAAUAUUACCUGGUA [C12A U58A], the self-cleavage is 0.733.
Regarding GUCCUCUUUCACGCGCCCGUGAAAGAGAGAAGUGAACCAGAGAAACACACGUUGUGGUAUAUUACCUGGUA [U14C G17C], the self-cleavage worked out at 0.582.
Under GUCCUCUUUCACGUGCGCGUGAAAGAGAGAAGUAAACCAGAGAAACACACGUUGUUGUAUAUUACCUGGUA [G34A G56U] stands 0.128.
As for GUCCUCUUUCACGUGCGCGUGAAAGAGCGAAGUGAACCGGAGAAACACACGUUGUGGUAUAUUACCUGGUA [A28C A39G], the self-cleavage was found to be 0.171.
In the case of GUCCUCUUUCACGUGCGCGUUAAAGAGAGAAGUGAACCAGAGAAACACACGUUGUCGUAUAUUACCUGGUA [G21U G56C] it was 0.116; in that of GUCCUCUUUCACGUGCGCGUGAAAGAGAGAAGUGAACCAGAGAAACACACGUUGUGGUAUGUUUCCUGGUA [A61G A64U], 0.202; in that of GUCCUCUUUCAAGUGCGCGUGAAAGAGAGAAGUGAACCAGAGAAACACACGUUGUGGUAUAGUACCUGGUA [C12A U62G], 0.143.
For the variant GUCCUCUUUCACGUGCGCGUUAAAGAGAGAAGUGAACCAGAGAAACACACGUUGUGGUAUAUUAACUGGUA [G21U C65A], the self-cleavage came out at 0.996.
As to GUCCUCUUUCACGUGCGCGUGAAAGAGAGAAUUGGACCAGAGAAACACACGUUGUGGUAUAUUACCUGGUA [G32U A35G], the self-cleavage came to 0.0968.
GUCCUCUUUCACCUGCGCGUGAAAGAGAGAAGUGAACCAGAGAAACACACGUUGUGGUAUAUUCCCUGGUA [G13C A64C]: the self-cleavage came out at 0.149.
Turning to GUCCUAUUUCACGUGCGCGUGAAAGAGAGAAGUGAACAAGAGAAACACACGUUGUGGUAUAUUACCUGGUA [C6A C38A], the self-cleavage amounted to 0.141.
Consider GUCCUCUUUCACGUGCGCGUGGAAGAGAGAAGUGAACCAGAGAUACACACGUUGUGGUAUAUUACCUGGUA [A22G A44U], for which the self-cleavage is 0.123.
GACCUCUUUCACGUACGCGUGAAAGAGAGAAGUGAACCAGAGAAACACACGUUGUGGUAUAUUACCUGGUA [U2A G15A]: the self-cleavage came out at 0.216.
As to GUCCUCUUUCACGUGCGCGUGAAAGAGAGAAGUGAACCAGAGAAACAGACGUUGUGGUAUAUUACCUAGUA [C48G G68A], the self-cleavage is 0.226.
Regarding GUCCUCUUUCACGUGCGCAUGAAAGAGAGAAGUGAACCAGAGAAAGACACGUUGUGGUAUAUUACCUGGUA [G19A C46G], the self-cleavage came out at 0.176.
Turning to GUCCUCUUUCACGUGCGCGUGAAAGAGAGAAGUGAACCAGAGAAACAAACGUUCUGGUAUAUUACCUGGUA [C48A G54C], the self-cleavage is 0.0747.
With GUCCUCUUACACGUGCGCGUGAAAGAGAGAAGUGAACCAGAGAAACACACGUUGUGGUAUAUUGCCUGGUA [U9A A64G], the self-cleavage turned out to be 0.284.
As to GUCCUCUUUAACGUGCGCGUGAAAGAGAGAAGUGAACCAGAGAAACACACGUUGUGGUCUAUUACCUGGUA [C10A A59C], the self-cleavage came to 0.192.
Under GUCCUUUUUCACGUGCGCGUGAAAGAGAGAAGUGAACCAGAGAAACACACGUUGUGGUAUAUUACCUAGUA [C6U G68A] stands 0.209; under GUCCUCUUUCACGUGCGCGUGAAAGAGACAAGUGAAGCAGAGAAACACACGUUGUGGUAUAUUACCUGGUA [G29C C37G], 0.084; under GUCCUCUUUCACGUCCGCGUGAAAGAGAGAAGUGAACCAGAGAAACACACGAUGUGGUAUAUUACCUGGUA [G15C U52A], 1.19.
As for GUCCUCUUUCACGUGCUCGUGAAAGAGAGAAGUGAACAAGAGAAACACACGUUGUGGUAUAUUACCUGGUA [G17U C38A], the self-cleavage turned out to be 0.136.
In the case of GUCCUCUUUCACGUGCGCGUGAACGAGAGAAGUGAACCAGAGAAACACACGUUGUGGUAUAUCACCUGGUA [A24C U63C], the self-cleavage is 0.184.
GUCCUCUUUCACGUGCUCGCGAAAGAGAGAAGUGAACCAGAGAAACACACGUUGUGGUAUAUUACCUGGUA [G17U U20C]: the self-cleavage was found to be 1.26.
Turning to GUCCUCUUUCACGUGCGCGGGAGAGAGAGAAGUGAACCAGAGAAACACACGUUGUGGUAUAUUACCUGGUA [U20G A23G], the self-cleavage is 0.98.
